The text below walks through data of paper PMC8219780, “The MLKL kinase-like domain dimerization is an indispensable step of mammalian MLKL activation in necroptosis signaling” (Cell Death & Disease, 2021).

Substitutions are numbered along the chain they refer to. Names may count otherwise.

The target in data set [1] is Flag-tagged human MLKL kinase-like domain, phosphomimic mutant T357ES358D, expressed in HEK293T (human). The data set can be described thus: cross-linking; whole-cell lysates of HEK293T cells expressing Flag-tagged MLKL KLD proteins (24 h); 500 uM DSG 30 min; SDS-PAGE, western blot anti-Flag. A general note: In western blotting, separated proteins are transferred to a membrane and probed.

The target of data set [2] is Flag-tagged mouse MLKL kinase-like domain, phosphomimic mutant S345D, expressed in HEK293T (mouse) (UniProt Q9D2Y4). The description is as above.
Data set [3] concerns the target human MLKL kinase-like domain, phosphor-sites' mutant T357A/S358A (179~471 aa), recombinant (human) (UniProt Q8NB16). The data set can be described thus: cross-linking; purified recombinant MLKL KLD proteins with 500 uM DSG, 30 min, room temperature; stopped with 100 mM Tris-HCl pH 7.5; SDS-PAGE, Coomassie.
Data set [4] concerns the molecule itself. Nature of the data set: SEC; gel filtration of purified His-Sumo tagged human MLKL (126~181 aa) on Superdex 200; fractions on SDS-PAGE, Coomassie. In general terms: In gel filtration, larger molecules generally elute earlier.
Data set [5] concerns the molecule itself. The data set can be described thus: SEC; gel filtration of purified recombinant human MLKL KLD proteins on Superdex 75; fractions on SDS-PAGE, Coomassie; standards BSA 67 kDa, ovalbumin 44 kDa, ribonuclease A 14 kDa.
Data set [6] deals with the molecule itself. Nature of the data set: cross-linking; purified recombinant MLKL KLD proteins with 500 uM DSG, 30 min, room temperature; stopped with 100 mM Tris-HCl pH 7.5; SDS-PAGE, Coomassie.

As for “Flag-tagged human MLKL kinase-like domain, phosphomimic mutant T357ES358D, expressed in HEK293T (domain or fragment)”, in data set [1], the stoichiometry N (commonly a count of units in the complex or per binding partner) was 2.

In the case of “Flag-tagged mouse MLKL kinase-like domain, phosphomimic mutant S345D, expressed in HEK293T (from UniProt Q9D2Y4 192-456) (domain or fragment)”, the stoichiometry N in data set [2] came to 2.

For the molecule “human MLKL kinase-like domain, phosphor-sites' mutant T357A/S358A (179~471 aa), recombinant (from UniProt Q8NB16 179-471) (domain or fragment)”, the stoichiometry N in data set [3] turned out to be 2.

B1: His-Sumo tagged human MLKL (126~181 aa), internal coiled-coil region, wild-type (domain or fragment, UniProt Q8NB16 126-181, looked up)
chain: PISQGASWAQEDQQDADEDRRAFQMLRRDNEKIEASLRRLEINMKEIKETLRQYLP
notes: Vector PET-SUMO; also called internal coiled-coil in brace region; source: E. coli BL21(DE3), purified (NTA resin, Superdex 200)
As for B1, the binding result in data set [4] is given as “binds”.

B2: human MLKL kinase-like domain, phosphomimic mutant T357E/S358D (179~471 aa), recombinant (domain or fragment, UniProt Q8NB16 179-471, looked up)
chain: YLPPKCMQEIPQEQIKEIKKEQLSGSPWILLRENEVSTLYKGEYHRAPVAIKVFKKLQAGSIAIVRQTFNKEIKTMKKFESPNILRIFGICIDETVTPPQFSIVMEYCELGTLRELLDREKDLTLGKRMVLVLGAARGLYRLHHSEAPELHGKIRSSNFLVTQGYQVKLAGFELRKTQEDMSLGTTREKTDRVKSTAYLSPQELEDVFYQYDVKSEIYSFGIVLWEIATGDIPFQGCNSEKIRKLVAVKRQQEPLGEDCPSELREIIDECRAHDPSVRPSVDEILKKLSTFSK
notes: Mixed lineage kinase domain-like protein (MLKL), human, kinase-like domain, residues 179-471, T357E/S358D; GST removed with HRV3C protease; residues of the site may remain at the N-terminus; source: Sf9 insect cells (baculovirus), purified (Glutathione Sepharose 4B, on-column HRV3C digestion, Superdex 75 or 200); not shown: GST, N-terminal, cleaved
Take B2: the “stoichiometry N” value in data set [5] came out at 2.

B3: human MLKL kinase-like domain, wild-type (179~471 aa), recombinant (domain or fragment, UniProt Q8NB16 179-471, looked up)
chain: B2 chain with E179T, D180S
notes: Mixed lineage kinase domain-like protein (MLKL), human, kinase-like domain, residues 179-471; residues of the site may remain at the N-terminus; also called MLKL KLD; WT; source: Sf9 insect cells (baculovirus), purified (Glutathione Sepharose 4B, on-column HRV3C digestion, Superdex 75 or 200); not shown: GST, N-terminal, cleaved
In the case of B3, in data set [6], the “stoichiometry N” value amounted to 2.
